First the molecules themselves.
B1: Cullin-3 (Schizosaccharomyces pombe (strain ATCC 38366 / 972)), Q09760 (parent)
chain: MQRSAKLKIRAPRKFSANQVDFATHWEVLQRAIGDIFQKSTSQLSFEELYRNAYILVLHKYGEKLYNHVQDVIRSRLKEETVPAIYKNYDASLLGNALLDIRKNDSYSTSWSRSLEAAHRFLSSLVNSWKDHIVSMQMISSVLKYLDKVYSKSADKVPVNENGIYIFREVVLLNSFEIGEKCVETILILVYLERKGNTINRPLINDCLDMLNSLPSENKKETLYDVLFAPKFLSYTRNFYEIESSTVIGVFGVVEYLKKAEKRFEEEKERSKNYLFTKIASPLLSVVEDELLSKHLDDLLENQSTGFFSMIDSSNFEGLQLVYESFSRVELGVKSLKKYLAKYVAHHGKLINETTSQALEGKMAVGRLSSNATMATLWVQKVLALWDRLNTIISTTMDADRSILNSLSDAFVTFVDGYTRAPEYISLFIDDNLKKDARKAIEGSIEATLQNSVTLFRFISEKDVFEKYYKTHLAKRLLNNRSISSDAELGMISRLKQEAGNVFTQKLEGMFNDMNLSQELLQEYKHNSALQSAKPALDLNVSILASTFWPIDLSPHKIKCNFPKVLLAQIDQFTDFYLSKHTGRKLLWYPSMGSADVRVNFKDRKYDLNVSTIASVILLLFQDLKENQCLIFEEILEKTNIEVGDLKRNLQSLACAKYKILLKDPKGREVNAGDKFYFNENFVSNLARIKISTVAQTRVEDDSERKRTLEKVDESRKHQADACIVRVMKDRKVCEHNQLMAEVTRQLNPRFHPSPMMIKRRIEALIEREYLQRQADNGRIYEYLA
partner: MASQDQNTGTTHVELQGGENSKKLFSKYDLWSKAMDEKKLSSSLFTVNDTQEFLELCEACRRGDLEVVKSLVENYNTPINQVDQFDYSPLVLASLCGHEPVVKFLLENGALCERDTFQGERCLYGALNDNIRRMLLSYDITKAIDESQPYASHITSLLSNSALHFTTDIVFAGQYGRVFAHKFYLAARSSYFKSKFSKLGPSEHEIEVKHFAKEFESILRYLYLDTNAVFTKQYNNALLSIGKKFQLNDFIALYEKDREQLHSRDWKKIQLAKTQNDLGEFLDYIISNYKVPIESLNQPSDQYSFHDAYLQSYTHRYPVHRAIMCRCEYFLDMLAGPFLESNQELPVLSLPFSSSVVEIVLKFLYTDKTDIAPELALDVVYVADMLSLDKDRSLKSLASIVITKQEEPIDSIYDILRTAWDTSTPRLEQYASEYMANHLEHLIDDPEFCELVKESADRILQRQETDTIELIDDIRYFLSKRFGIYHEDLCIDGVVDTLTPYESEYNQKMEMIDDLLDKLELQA
B2: BTB/POZ domain-containing protein 3 (Schizosaccharomyces pombe (strain ATCC 38366 / 972)), Q10225 (parent)
chain: B1 partner
partner: B1 chain

In the first assay the parent is B1. The conditions noted are these: with btb3_schpo btb3, Q10225.
For the variant Y50G, the “effect of a mutation on the interaction” value is reported as “disrupting interaction”.

Variants of B2 are the subject of the next assay. The conditions noted are these: with cul3_schpo cul3, Q09760.
D168A: the “effect of a mutation on the interaction” value is recorded as “disrupting interaction”.

In the case of H181L, the “effect of a mutation on the interaction” value is reported as “disrupting interaction”.

For the origin of these results see IntAct's records for PubMed 14527422.
